Measured values taken from patent publication US20040048327A1.
Numbered stars: 1 amine (or outer) side, 2 acyl side, 3 side chain; on linkers, the order of the positions; unused ones are H or OH. Square brackets hold non-standard residues; d marks the D form. * marks the point of attachment. AAsp = aza-Asp, O=C(N(CC(=O)[*:3])N[*:1])[*:2]; Cbz = O=C(OCc1ccccc1)*; NHBn = c1ccc(CN*)cc1

B1: Cbz-Leu-Glu-Thr-AAsp-(S,S)-EP-CO-Ala-NHCH2Ph (peptide)
peptide: Cbz-LET[AAsp]-{(S,S)‑EP‑CO-Ala-NHBn}
B2: Cbz-Leu-Glu-Thr-AAsp-(2R, 3R)-EP-COOEt (peptide)
peptide: Cbz-LET[AAsp]-{(2R,3R)‑EP‑COOEt}
B3: Cbz-Leu-Glu-Thr-AAsp-(2S,3S)-EP-CON(CH3)CH2Ph (peptide)
peptide: Cbz-LET[AAsp]-{(2S,3S)‑EP‑CON(CH3)CH2Ph}
B4: Cbz-Leu-Glu-Thr-AAsp-(2S, 3S)-EP-COOEt (peptide)
peptide: Cbz-LET[AAsp]-{(2S,3S)‑EP‑COOEt}
B5: Cbz-Leu-Glu-Thr-AAsp-(2S,3S)-EP-CON(CH2Ph)2 (peptide)
peptide: Cbz-LET[AAsp]-{(2S,3S)‑EP‑CON(CH2Ph)2}
B6: Cbz-Leu-Glu-Thr-AAsp-(S,S)-EP-COOCH2Ph (peptide)
peptide: Cbz-LET[AAsp]-{(S,S)‑EP‑COOCH2Ph}
B7: Cbz-Leu-Glu-Thr-AAsp-(S,S)-EP-CONHCH2CH2Ph (peptide)
peptide: Cbz-LET[AAsp]-{(S,S)‑EP‑CONHCH2CH2Ph}

What follows are binders tested against T1, caspase-3 (UniProt P42574) (assay: cell-based or functional assay).
T1 sequence (looked up): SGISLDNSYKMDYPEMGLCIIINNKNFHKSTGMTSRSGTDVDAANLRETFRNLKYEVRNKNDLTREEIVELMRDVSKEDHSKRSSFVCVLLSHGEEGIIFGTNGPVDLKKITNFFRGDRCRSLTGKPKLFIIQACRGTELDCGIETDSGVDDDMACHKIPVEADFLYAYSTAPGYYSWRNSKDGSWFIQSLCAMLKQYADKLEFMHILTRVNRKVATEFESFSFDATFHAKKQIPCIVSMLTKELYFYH

Row | Binder | k2
1 | B1 | 1280 M⁻¹ s⁻¹
2 | B2 | 3250 M⁻¹ s⁻¹
3 | B3 | 2640 M⁻¹ s⁻¹
4 | B4 | 3210 M⁻¹ s⁻¹
5 | B5 | 2750 M⁻¹ s⁻¹
6 | B6 | 3520 M⁻¹ s⁻¹
7 | B7 | 2550 M⁻¹ s⁻¹

These binders were tested against T2, caspase-6 (UniProt P55212) (assay: cell-based or functional assay).
T2 sequence (looked up): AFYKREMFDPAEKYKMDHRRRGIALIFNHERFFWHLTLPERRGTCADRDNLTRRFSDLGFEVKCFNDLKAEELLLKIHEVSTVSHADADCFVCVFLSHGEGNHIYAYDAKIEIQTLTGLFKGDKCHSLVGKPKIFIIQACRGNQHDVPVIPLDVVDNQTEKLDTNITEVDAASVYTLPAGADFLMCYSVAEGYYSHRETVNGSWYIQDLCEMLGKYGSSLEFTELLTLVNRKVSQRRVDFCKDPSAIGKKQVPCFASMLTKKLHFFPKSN

Row | Binder | k2
8 | B3 | 9680 M⁻¹ s⁻¹
9 | B5 | 13800 M⁻¹ s⁻¹

Each binder was assayed against autolytically stable caspase-1 variant (D381 E) (UniProt P29466) (assay: cell-based or functional assay).
autolytically stable caspase-1 variant (D381 E), sequence (P29466 other isoform, or with tags, fused parts or gaps mutant limits assumed): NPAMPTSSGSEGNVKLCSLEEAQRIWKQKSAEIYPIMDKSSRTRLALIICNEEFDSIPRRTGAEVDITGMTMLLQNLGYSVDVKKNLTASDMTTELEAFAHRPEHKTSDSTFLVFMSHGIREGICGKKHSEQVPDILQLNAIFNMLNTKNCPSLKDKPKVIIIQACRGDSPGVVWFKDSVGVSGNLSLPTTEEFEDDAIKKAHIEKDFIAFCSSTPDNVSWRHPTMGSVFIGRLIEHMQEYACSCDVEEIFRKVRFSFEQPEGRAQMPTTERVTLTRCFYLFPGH

Row | Binder | k2
10 | B2 | 19600 M⁻¹ s⁻¹
11 | B4 | 25700 M⁻¹ s⁻¹
12 | B6 | 43500 M⁻¹ s⁻¹
